Measurements published in publication PMC7041945, “Misfolded proteins bind and activate death receptor 5 to trigger apoptosis during unresolved endoplasmic reticulum stress” (eLife, 2020).

System: CHOP, BiP, and DR5 mRNA in HCT116 cells
Assay: qPCR of UPR target transcripts (CHOP, BiP, DR5)
Type: cell-based, Homo sapiens
Conditions: HCT116; for ERO1alpha (386+387) avg. fold induction relative to empty traffo / ERO1alpha (386+387) fold induction relative to empty traffo: melt curves for these primers showed two peaks; for GAPDH avg. fold induction relative to empty traffo / GAPDH fold induction relative to empty traffo: sheet Cq data 2
Description: Cells were grown in 6-well plates and harvested with 0.5 ml of TRIzol reagent (Life Technologies) per manufacturer’s protocol to extract RNA. For cDNA synthesis, 500 ng of total RNA was reverse transcribed with 2 μl of the SuperScript VILO master mix (Life Technologies # 11755050) in a total reaction volume of 10 μl following the manufacturer’s protocol for reaction temperature and duration. The reverse transcription product was diluted to 200 μl with 10 mM Tris-HCl pH 8.2 and used at 1:100 dilution for subsequent RT-PCR reactions.
PCR samples were prepared as described by manufacturer’s protocols from iQ SYBR Green Supermix (BioRad #17088800).
For each experiment, qRT-PCR reactions were set up in triplicate and run using a CFX96 Real Time System (Bio-Rad). Quantitation cycles were determined with CFX Manager 3.0 software (Bio-Rad) and then normalized to GAPDH as an internal control.

[1] = pRK CHOP 31 ng, mean of 3 replicates
[2] = pRK CHOP 62 ng, mean of 3 replicates
[3] = pRK CHOP 125 ng, mean of 3 replicates
[4] = pRK CHOP 250 ng, mean of 3 replicates
[5] = pRK CHOP 500 ng, mean of 3 replicates

B1: pRK CHOP (protein, UniProt P35638 1-169, looked up)
DNA damage-inducible …: MAAESLPFSFGTLSSWELEAWYEDLQEVLSSDENGGTYVSPPGNEEEESKIFTTLDPASLAWLTEEEPEPAEVTSTSQSPHSPDSSQSSLAQEEEEEDQGRTRKRKQSGHSPARAGKQRMKEKEQENERKVAQLAEENERLKQEIERLTREVEATRRALIDRMVNLHQA
modifications: expression plasmid
- GAPDH (qPCR CHOP, Sheet1) (pRK CHOP 31 ng, replicate 1): 0.869
- CHOP (qPCR CHOP, Sheet1) (pRK CHOP 31 ng, replicate 2): 19.1521
- DR5 (qPCR CHOP, Sheet1) (pRK CHOP 31 ng, replicate 2): 0.9212
- GADD34 (qPCR CHOP, Sheet1) (pRK CHOP 31 ng, replicate 2): 1.088
- GAPDH (qPCR CHOP, Sheet1) (pRK CHOP 31 ng, replicate 2): 1.031
- CHOP (qPCR CHOP, Sheet1) (pRK CHOP 31 ng, replicate 3): 20.8362
- DR5 (qPCR CHOP, Sheet1) (pRK CHOP 31 ng, replicate 3): 2.023
- GADD34 (qPCR CHOP, Sheet1) (pRK CHOP 31 ng, replicate 3): 1.137
- GAPDH (qPCR CHOP, Sheet1) (pRK CHOP 31 ng, replicate 3): 1.033
- GADD34 (388+389) avg. fold induction relative to empty traffo [1]: 1
- GFP avg. fold induction relative to empty traffo [1]: 1.822
- ERO1alpha (386+387) avg. fold induction relative to empty traffo [1]: 1.061
- ERO1alpha (386+387) fold induction relative to empty traffo (pRK CHOP 31 ng, replicate 1): 0.958
- ERO1alpha (386+387) fold induction relative to empty traffo (pRK CHOP 31 ng, replicate 2): 1.088
- ERO1alpha (386+387) fold induction relative to empty traffo (pRK CHOP 31 ng, replicate 3): 1.137
- GADD34 (388+389) fold induction relative to empty traffo (pRK CHOP 31 ng, replicate 1): 1.125
- GFP fold induction relative to empty traffo (pRK CHOP 31 ng, replicate 1): 1.737
- GADD34 (388+389) fold induction relative to empty traffo (pRK CHOP 31 ng, replicate 2): 0.859
- GFP fold induction relative to empty traffo (pRK CHOP 31 ng, replicate 2): 1.908
- GADD34 (388+389) fold induction relative to empty traffo (pRK CHOP 31 ng, replicate 3): 1.016
- GFP fold induction relative to empty traffo (pRK CHOP 31 ng, replicate 3): 1.822
- GAPDH avg. fold induction relative to empty traffo [1]: 1.0065
- GAPDH fold induction relative to empty traffo (pRK CHOP 31 ng, replicate 1): 0.9404
- GAPDH fold induction relative to empty traffo (pRK CHOP 31 ng, replicate 2): 0.905
- GAPDH fold induction relative to empty traffo (pRK CHOP 31 ng, replicate 3): 1.174
- GFP avg. fold induction relative to empty traffo [2]: 1.726
- ERO1alpha (386+387) avg. fold induction relative to empty traffo [2]: 1.099
- ERO1alpha (386+387) fold induction relative to empty traffo (pRK CHOP 62 ng, replicate 1): 1.074
- ERO1alpha (386+387) fold induction relative to empty traffo (pRK CHOP 62 ng, replicate 2): 1.056
- ERO1alpha (386+387) fold induction relative to empty traffo (pRK CHOP 62 ng, replicate 3): 1.168
- GADD34 (388+389) fold induction relative to empty traffo (pRK CHOP 62 ng, replicate 1): 0.9151
- GFP fold induction relative to empty traffo (pRK CHOP 62 ng, replicate 1): 1.604
- GADD34 (388+389) fold induction relative to empty traffo (pRK CHOP 62 ng, replicate 2): 1.316
- GFP fold induction relative to empty traffo (pRK CHOP 62 ng, replicate 2): 1.747
- GADD34 (388+389) fold induction relative to empty traffo (pRK CHOP 62 ng, replicate 3): 1.12
- GFP fold induction relative to empty traffo (pRK CHOP 62 ng, replicate 3): 1.828
- GAPDH avg. fold induction relative to empty traffo [2]: 1.001
- GAPDH fold induction relative to empty traffo (pRK CHOP 62 ng, replicate 1): 0.9597
- GAPDH fold induction relative to empty traffo (pRK CHOP 62 ng, replicate 2): 0.9785
- GAPDH fold induction relative to empty traffo (pRK CHOP 62 ng, replicate 3): 1.064
- CHOP (qPCR CHOP, Sheet1) (pRK CHOP 125 ng, replicate 1): 230.561
- DR5 (qPCR CHOP, Sheet1) (pRK CHOP 125 ng, replicate 1): 1.242
- GADD34 (qPCR CHOP, Sheet1) (pRK CHOP 125 ng, replicate 1): 1.11
- GAPDH (qPCR CHOP, Sheet1) (pRK CHOP 125 ng, replicate 1): 0.8158
- CHOP (qPCR CHOP, Sheet1) (pRK CHOP 125 ng, replicate 2): 173.762
- DR5 (qPCR CHOP, Sheet1) (pRK CHOP 125 ng, replicate 2): 1.206
- GADD34 (qPCR CHOP, Sheet1) (pRK CHOP 125 ng, replicate 2): 1.18
- GAPDH (qPCR CHOP, Sheet1) (pRK CHOP 125 ng, replicate 2): 1.045
- CHOP (qPCR CHOP, Sheet1) (pRK CHOP 125 ng, replicate 3): 257.78
- DR5 (qPCR CHOP, Sheet1) (pRK CHOP 125 ng, replicate 3): 1.064
- GADD34 (qPCR CHOP, Sheet1) (pRK CHOP 125 ng, replicate 3): 1.241
- GAPDH (qPCR CHOP, Sheet1) (pRK CHOP 125 ng, replicate 3): 1.086
- GFP avg. fold induction relative to empty traffo [3]: 8.414
- ERO1alpha (386+387) avg. fold induction relative to empty traffo [3]: 1.177
- ERO1alpha (386+387) fold induction relative to empty traffo (pRK CHOP 125 ng, replicate 1): 1.11
- ERO1alpha (386+387) fold induction relative to empty traffo (pRK CHOP 125 ng, replicate 2): 1.18
- ERO1alpha (386+387) fold induction relative to empty traffo (pRK CHOP 125 ng, replicate 3): 1.241
- GADD34 (388+389) fold induction relative to empty traffo (pRK CHOP 125 ng, replicate 1): 1.561
- GFP fold induction relative to empty traffo (pRK CHOP 125 ng, replicate 1): 9.5448
- GADD34 (388+389) fold induction relative to empty traffo (pRK CHOP 125 ng, replicate 2): 1.2889
- GFP fold induction relative to empty traffo (pRK CHOP 125 ng, replicate 2): 8.015
- GADD34 (388+389) fold induction relative to empty traffo (pRK CHOP 125 ng, replicate 3): 1.475
- GFP fold induction relative to empty traffo (pRK CHOP 125 ng, replicate 3): 7.683
- GAPDH avg. fold induction relative to empty traffo [3]: 1.018
- GAPDH fold induction relative to empty traffo (pRK CHOP 125 ng, replicate 1): 0.7828
- GAPDH fold induction relative to empty traffo (pRK CHOP 125 ng, replicate 2): 1.018
- GAPDH fold induction relative to empty traffo (pRK CHOP 125 ng, replicate 3): 1.254
- GFP avg. fold induction relative to empty traffo [4]: 2.186
- ERO1alpha (386+387) avg. fold induction relative to empty traffo [4]: 1.157
- ERO1alpha (386+387) fold induction relative to empty traffo (pRK CHOP 250 ng, replicate 1): 1.13
- ERO1alpha (386+387) fold induction relative to empty traffo (pRK CHOP 250 ng, replicate 2): 1.17
- ERO1alpha (386+387) fold induction relative to empty traffo (pRK CHOP 250 ng, replicate 3): 1.17
- GADD34 (388+389) fold induction relative to empty traffo (pRK CHOP 250 ng, replicate 1): 1.613
- GFP fold induction relative to empty traffo (pRK CHOP 250 ng, replicate 1): 2.374
- GADD34 (388+389) fold induction relative to empty traffo (pRK CHOP 250 ng, replicate 2): 1.727
- GFP fold induction relative to empty traffo (pRK CHOP 250 ng, replicate 2): 2.176
- GADD34 (388+389) fold induction relative to empty traffo (pRK CHOP 250 ng, replicate 3): 1.397
- GFP fold induction relative to empty traffo (pRK CHOP 250 ng, replicate 3): 2.009
- GAPDH avg. fold induction relative to empty traffo [4]: 1.005
- GAPDH fold induction relative to empty traffo (pRK CHOP 250 ng, replicate 1): 0.8675
- GAPDH fold induction relative to empty traffo (pRK CHOP 250 ng, replicate 2): 1.034
- GAPDH fold induction relative to empty traffo (pRK CHOP 250 ng, replicate 3): 1.114
- CHOP (qPCR CHOP, Sheet1) (pRK CHOP 500 ng, replicate 1): 1691.32
- DR5 (qPCR CHOP, Sheet1) (pRK CHOP 500 ng, replicate 1): 1.92
- GADD34 (qPCR CHOP, Sheet1) (pRK CHOP 500 ng, replicate 1): 1.469
- GAPDH (qPCR CHOP, Sheet1) (pRK CHOP 500 ng, replicate 1): 0.9688
- CHOP (qPCR CHOP, Sheet1) (pRK CHOP 500 ng, replicate 2): 1384.67
- DR5 (qPCR CHOP, Sheet1) (pRK CHOP 500 ng, replicate 2): 1.724
- GADD34 (qPCR CHOP, Sheet1) (pRK CHOP 500 ng, replicate 2): 1.35
- GAPDH (qPCR CHOP, Sheet1) (pRK CHOP 500 ng, replicate 2): 0.7886
- CHOP (qPCR CHOP, Sheet1) (pRK CHOP 500 ng, replicate 3): 1378.19
- DR5 (qPCR CHOP, Sheet1) (pRK CHOP 500 ng, replicate 3): 1.731
- GADD34 (qPCR CHOP, Sheet1) (pRK CHOP 500 ng, replicate 3): 1.457
- GAPDH (qPCR CHOP, Sheet1) (pRK CHOP 500 ng, replicate 3): 1.212
- GFP avg. fold induction relative to empty traffo [5]: 12.178
- ERO1alpha (386+387) avg. fold induction relative to empty traffo [5]: 1.425
- ERO1alpha (386+387) fold induction relative to empty traffo (pRK CHOP 500 ng, replicate 1): 1.469
- ERO1alpha (386+387) fold induction relative to empty traffo (pRK CHOP 500 ng, replicate 2): 1.35
- ERO1alpha (386+387) fold induction relative to empty traffo (pRK CHOP 500 ng, replicate 3): 1.457
- GADD34 (388+389) fold induction relative to empty traffo (pRK CHOP 500 ng, replicate 1): 2.321
- GFP fold induction relative to empty traffo (pRK CHOP 500 ng, replicate 1): 5.396
- GADD34 (388+389) fold induction relative to empty traffo (pRK CHOP 500 ng, replicate 2): 2.041
- GADD34 (388+389) fold induction relative to empty traffo (pRK CHOP 500 ng, replicate 3): 2.147
- GFP fold induction relative to empty traffo (pRK CHOP 500 ng, replicate 3): 5.386
- GAPDH avg. fold induction relative to empty traffo [5]: 1.044
- GAPDH fold induction relative to empty traffo (pRK CHOP 500 ng, replicate 1): 0.6526
- GAPDH fold induction relative to empty traffo (pRK CHOP 500 ng, replicate 2): 1.156
- GAPDH fold induction relative to empty traffo (pRK CHOP 500 ng, replicate 3): 1.324
